Tested on: Bacillus subtilis
Test: cleaved RNA product abundance (RNA/gDNA barcode ratio) relative to median wild-type variant (ratio to wild type); higher = more accumulation of the downstream cleavage product
Details: cleavage site: cggR-gapA (positions -7 to +36 mutated)
How it was run: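 Cleaved product abundance is expressed as the RNA:gDNA barcode ratio per construct, scaled to the median construct carrying the unmutated site. The constructs were barcoded, mutagenized RNase Y cleavage-site windows in truncated aprE or tetM reporter mRNAs integrated into the B. subtilis chromosome. Cultures grew in LB at 37°C from OD600 0.0003 to 0.3 before cleaved RNA was gel-selected and barcode-sequenced.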

[1] = experiment (reporter, strain, medium): exp 4a: truncated aprE reporter, strain BJT201 with 2% xylose (RNase J1 expressed)
[2] = experiment (reporter, strain, medium): exp 2b: truncated aprE reporter, strain BJT200
[3] = experiment (reporter, strain, medium): exp 6: tetM reporter, strain 168

Sequence	cleaved RNA product abundance [1]	cleaved RNA product abundance [2]	cleaved RNA product abundance [3]
ACAGACGAAGGAGCCGCAAAGAATTTATTAAGGGATGAATAATCCCTCCATATAAATATCTCTCACTTATTTAAA	0.424		
ACAGACGAAGGAGCCGCAAAGAATTTATTAAGGGATGAATAATCCCTCGATATAAATATCTCTCACTTATTTAAA	0.422		
ACAGACGAAGGAGCCGCAAAGAATTTATTAAGGGATGAATAATCCCTCTATATAAATATCTCTCACTTATTTAAA	0.543	0.363	
ACAGACGAAGGAGCCGCAAAGAATTTATTAAGGGATGAATAATCCCTTAATATAAATATCTCTCACTTATTTAAA	0.448		
ACAGACGAAGGAGCCGCAAAGAATTTATTAAGGGATGAATAATCCGTCAATATAAATATCTCTCACTTATTTAAA	0.163		
ACAGACGAAGGAGCCGCAAAGAATTTATTAAGGGATGAATAATCCTTCAATATAAATATCTCTCACTTATTTAAA	0.397		
ACAGACGAAGGAGCCGCAAAGAATTTATTAAGGGATGAATAATCGCTCAATATAAATATCTCTCACTTATTTAAA	0.0604	0.105	
ACAGACGAAGGAGCCGCAAAGAATTTATTAAGGGATGAATAATCTCTCAATATAAATATCTCTCACTTATTTAAA	0.844		
ACAGACGAAGGAGCCGCAAAGAATTTATTAAGGGATGAATAATGCATCAATATAAATATCTCTCACTTATTTAAA	0.2		
ACAGACGAAGGAGCCGCAAAGAATTTATTAAGGGATGAATAATGCCTCAATATAAATATCTCTCACTTATTTAAA	0.177		
ACAGACGAAGGAGCCGCAAAGAATTTATTAAGGGATGAATAATTCCTCAATATAAATATCTCTCACTTATTTAAA	0.394		
ACAGACGAAGGAGCCGCAAAGAATTTATTAAGGGATGAATACTCCCTCAATATAAATATCTCTCACTTATTTAAA	0.583	0.404	
ACAGACGAAGGAGCCGCAAAGAATTTATTAAGGGATGAATAGTCCCTCAATATAAATATCTCTCACTTATTTAAA	0.713		
ACAGACGAAGGAGCCGCAAAGAATTTATTAAGGGATGAATCATCCCTCAATATAAATATCTCTCACTTATTTAAA	0.545		
ACAGACGAAGGAGCCGCAAAGAATTTATTAAGGGATGAATTATCCCTCAATATAAATATCTCTCACTTATTTAAA	0.268	0.531	
ACAGACGAAGGAGCCGCAAAGAATTTATTAAGGGATGACTAATCCCTCAATATAAATATCTCTCACTTATTTAAA		0.3	
ACAGACGAAGGAGCCGCAAAGAATTTATTAAGGGATGCATAATCCCTCAATATAAATATCTCTCACTTATTTAAA	0.597	0.535	
ACAGACGAAGGAGCCGCAAAGAATTTATTAAGGGATGTATAATCCCTCAATATAAATATCTCTCACTTATTTAAA	0.683		
ACAGACGAAGGAGCCGCAAAGAATTTATTAAGGGATTAATAATCACTCAATATAAATATCTCTCACTTATTTAAA	0.153		
ACAGACGAAGGAGCCGCAAAGAATTTATTAAGGGATTAATAATCCCTCAATATAAATATCTCTCACTTATTTAAA	0.772	0.771	
ACAGACGAAGGAGCCGCAAAGAATTTATTAAGGGCTGAATAATCCCTCAATATAAATATCTCTCACTTATTTAAA	0.402		

Sequence	cleaved RNA product abundance [1]	cleaved RNA product abundance [2]	cleaved RNA product abundance [3]
ACAGACGAAGGAGCCGCAAAGAATTTATTAAGGGGTGAATAATCCCTCAATATAAATATCTCTCACTTATTTAAA	0.526		
ACAGACGAAGGAGCCGCAAAGAATTTATTAAGGGTTGAATAATCCCTCAATATAAATATCTCTCACTTATTTAAA	0.388		
ACAGACGAAGGAGCCGCAAAGAATTTATTAAGGTATGAATAATCCCTCAATATAAATATCTCTCACTTATTTAAA	0.178	0.102	
ACAGACGAAGGAGCCGCAAAGAATTTATTAAGTGATGAATAATCCCTCAATATAAATATCTCTCACTTATTTAAA	0.118	0.127	0.117
ACAGACGAAGGAGCCGCAAAGAATTTATTAATGGATGAATAATCCCTCAATATAAATATCTCTCACTTATTTAAA	0.111	0.105	
ACAGACGAAGGAGCCGCAAAGAATTTATTACGGGATGAATAATCCCTCAATATAAATATCTCTCACTTATTTAAA	0.37	0.303	
ACAGACGAAGGAGCCGCAAAGAATTTATTATGGGATGAATAATCCCTCAATATAAATATCTCTCACTTATTTAAA	0.292	0.266	
ACAGACGAAGGAGCCGCAAAGAATTTATTCAGGGATGAATAATCCCTCAATATAAATATCTCTCACTTATTTAAA	0.549	0.624	
ACAGACGAAGGAGCCGCAAAGAATTTATTTAGGAATGAATAATCCCTCAATATAAATATCTCTCACTTATTTAAA	0.0547		
ACAGACGAAGGAGCCGCAAAGAATTTCTTAAGGGATGAATAATCCCTCAATATAAATATCTCTCACTTATTTAAA	0.217		
ACAGACGAAGGAGCCGCAAAGAATTTTTTAAGGGATGAATAATCCCTCAATATAAATATCTCTCACTTATTTAAA	0.216		
ACAGACGAAGGAGCCGCAAAGACATTATTAAGGGATGAATAATCCCTCAATATAAATATCTCTCACTTATTTAAA	0.85		
ACAGACGAAGGAGCCGCAAAGACGCTATTAAGGGATGAATAATCCCTCAATATAAATATCTCTCACTTATTTAAA		0.548	
ACAGACGAAGGAGCCGCAAAGACGTCATTAAGGGATGAATAATCCCTCAATATAAATATCTCTCACTTATTTAAA	0.449		
ACAGACGAAGGAGCCGCAAAGACGTTATAAAGGGATGAATAATCCCTCAATATAAATATCTCTCACTTATTTAAA	0.401		
ACAGACGAAGGAGCCGCAAAGACGTTATTAAAGGATGAATAATCCCTCAATATAAATATCTCTCACTTATTTAAA	0.181		
ACAGACGAAGGAGCCGCAAAGACGTTATTAACGGATGAATAATCCCTCAATATAAATATCTCTCACTTATTTAAA	0.165		
ACAGACGAAGGAGCCGCAAAGACGTTATTAAGAGATGAATAATCCCTCAATATAAATATCTCTCACTTATTTAAA	0.116	0.101	
ACAGACGAAGGAGCCGCAAAGACGTTATTAAGCGATGAATAATCCCTCAATATAAATATCTCTCACTTATTTAAA	0.155		
ACAGACGAAGGAGCCGCAAAGACGTTATTAAGGAATGAATAATCCCTCAATATAAATATCTCTCACTTATTTAAA	0.14		
ACAGACGAAGGAGCCGCAAAGACGTTATTAAGGGATAAATAATCCCTCAATATAAATATCTCTCACTTATTTAAA	1.2		

Sequence	cleaved RNA product abundance [1]	cleaved RNA product abundance [2]	cleaved RNA product abundance [3]
ACAGACGAAGGAGCCGCAAAGACGTTATTAAGGGATCAATAATCCCTCAATATAAATATCTCTCACTTATTTAAA	0.743		
ACAGACGAAGGAGCCGCAAAGACGTTATTAAGGGATGAATAAACCCTCAATATAAATATCTCTCACTTATTTAAA	0.312		
ACAGACGAAGGAGCCGCAAAGACGTTATTAAGGGATGAATAATCACTCAATATAAATATCTCTCACTTATTTAAA	0.188	0.101	
ACAGACGAAGGAGCCGCAAAGACGTTATTAAGGGATGAATAATCCATCAATATAAATATCTCTCACTTATTTAAA	0.312	0.156	
ACAGACGAAGGAGCCGCAAAGACGTTATTAAGGGATGAATAATCCCCCAATATAAATATCTCTCACTTATTTAAA	0.226		
ACAGACGAAGGAGCCGCAAAGACGTTATTAAGGGATGAATAATCCCTCAAAATAAATATCTCTCACTTATTTAAA		0.31	
ACAGACGAAGGAGCCGCAAAGACGTTATTAAGGGATGAATAATCCCTCAACATAAATATCTCTCACTTATTTAAA	0.316		
ACAGACGAAGGAGCCGCAAAGACGTTATTAAGGGATGAATAATCCCTCAAGATAAATATCTCTCACTTATTTAAA	0.205		
ACAGACGAAGGAGCCGCAAAGACGTTATTAAGGGATGAATAATCCCTCAATATAAATATCTCTCACTTATTTAAA	1.02	0.978	1.12
ACAGACGAAGGAGCCGCAAAGACGTTATTAAGGGATGAATAATCCCTCAATATAGATATCTCTCACTTATTTAAA	0.456		
ACAGACGAAGGAGCCGCAAAGACGTTATTAAGGGATGAATAATCCCTCCATATAAATATCTCTCACTTATTTAAA		0.338	
ACAGACGAAGGAGCCGCAAAGACGTTATTAAGGGATGAATAATCCCTCGATATAAATATCTCTCACTTATTTAAA	0.386		
ACAGACGAAGGAGCCGCAAAGACGTTATTAAGGGATGAATAATCCCTCTATATAAATATCTCTCACTTATTTAAA	0.572		
ACAGACGAAGGAGCCGCAAAGACGTTATTAAGGGATGAATAATCCGTCAATATAAATATCTCTCACTTATTTAAA	0.192		
ACAGACGAAGGAGCCGCAAAGACGTTATTAAGGGATGAATAATCCTTCAATATAAATATCTCTCACTTATTTAAA		0.427	
ACAGACGAAGGAGCCGCAAAGACGTTATTAAGGGATGAATAATTCCTCAATATAAATATCTCTCACTTATTTAAA	0.944		
ACAGACGAAGGAGCCGCAAAGACGTTATTAAGGGATGAATCATCCCTCAATATAAATATCTCTCACTTATTTAAA	0.771	0.89	
ACAGACGAAGGAGCCGCAAAGACGTTATTAAGGGATGACTAATCCCTCAATATAAATATCTCTCACTTATTTAAA		0.561	
ACAGACGAAGGAGCCGCAAAGACGTTATTAAGGGATGATTAATCCCTCAATATAAATATCTCTCACTTATTTAAA	0.779		

— the supplement of paper PMC11780869
